The results in this text go back to paper PMC3364216, “The RuvA Homologues from Mycoplasma genitalium and Mycoplasma pneumoniae Exhibit Unique Functional Characteristics”.

The target of this data set is RuvAMge;RecUMge (Mycoplasma genitalium G37 (ATCC …, UniProt Q49424;Q49422 1-205;1-166, |)). Briefly: EMSA; 0.5 uM RecUMge preincubated, then RuvAMge; all RecU-HJ complexes shifted at 4 uM; 20 mM Tris-HCl pH 7.5, 1 mM DTT, 1 mM EDTA, 12.3 nM DNA, 10 ul, on ice 10 min; 8% PAGE in 0.5x TBE; +/- 10 mM Mg2+.

B1: HJ 1.1 (structured_DNA)
DNA 1: GCGACGTGATCACCAGATGATTGCTAGGCATGCTTTCCGCAAGAGAAGC
DNA 2: GGCTTCTCTTGCGGAAAGCATGCCTAGCAATCCTGTCAGCTGCATGGAAC
DNA 3: GGTTCCATGCAGCTGACAGGATTGCTAGGCTCAAGGCGAACTGCTAACGG
DNA 4: ACCGTTAGCAGTTCGCCTTGAGCCTAGCAATCATCTGGTGATCACGTCGC
Consider B1, for which the binding result is “binds”.
